Test: soluble on expression in E. coli; label from the status in PepcDB or PDB records

| Sequence | soluble on expression in E. coli |
| --- | --- |
| MSLDAHAQSYYRDCYRGAANMVRAMQKRANTLLSAGQTIADRQHKFIRSGRLRDKQPLTMTLIAQEAGLNKSTISRALSNCRIRLDSGIFPAEHFLARPLSDDTPDRTRDQVLQRLRLLIETENPRSPMSDQVLARQLGKARLSISRRTVAKYRQFLQIPGAYERKRNTEGHHHHHH | not soluble |
| MSLDEKLRTSGVQVIGDIAWGTHFCQFYRTQEELVNVVCPYLKAGLEGNELCIWALPRDFETKKEAEGPLRRTIPKLDIYLEKGQMEIISYKDRYAEKEIPDSKKALENLIKKADYALLNGYSGLRLVQDTSWLKNDWKNLTGYEEELDIAIENRRITALCTYSSGKFDTDETIYAALSHRFVLVKKEGNWEKVENPRLKKAEERVIQPSEEVETKTEEENENLKKLLEERTVELTEAYKSLKVNEKQFLQIRKMTHIGNWKWDILTGELHWSDEVYRIFGRDPERFKATCDAFLGSVHPDDREYLINSIKKDFDEQIRNIDYRIVLPDGEERTVRTRVEITFDEENQPVRAEGIVQDITELKRIEKALQEREEQYRAFFENSMDAVLFASPDGTIHAANKAACKTFGMTEKEIIRAGRNGIVDQSDPRLKPSLEERNSTGRFKGEINHKRKDGTIFPGEVSTALFKDKNGLMKIVIIIRDITERKKAEEVLRKSEEHYRMLFTNEGHHHHHH | soluble |
| MSLDFEYVTGEEGLKKAIKRLENSPYLYLDTETTGDRIRLVQIGDEENTYVIDLYEIQDIEPLRKLINERGIVGHNLKFDLKYLYRYGIFPSATFDTMIASYLLGYERHSLNHIVSNLLGYSMDKSYQTSDWGASVLSDAQLKYAANDVIVLRELFPKMRDMLNELDAERGEELLKTRTAKIFDLKSPVAIVEMAFVREVAKLEINGFPVDVEELTNKLKAVERETQKRIQEFYIKYRVDPLSPKQLASLLTKKFKLNLPKTPKGNVSTDDKALTSYQDVEPVKLVLEIRKLKKIADKLKELKEHLKNGRVYPEFKQIGAVTGRMSSAHPNIQNIHRDMRGIFKAEEGNTFVISDFSQIELRIAAEYVKDPLMLDAFKKGKDMHRYTASVVLGKKEEEITKEERQLAKAINFGLIYGISAKGLAEYAKLGYGVEISLEEAQVLRERFFKNFKAFKEWHDRVKKELKEKGEVKGHTLLGRRFSANTFNDAVNYPIQGTGADLLKLAVLLFDANLQKKGIDAKLVNLVHDEIVVECEKEKAEEVKEILEKSMKTAGKIILKEVPVEVESVINERWTKEGHHHHHH | soluble |
| MSLDGIIPVVEKKDFLRWFLKEFTLKKRECSWLLNYLMSDDDLMENVHFVEEAERCPKALIMSTNDVHTVPFCFHKYQQVTMDAEKAFHDIRMNPEEAIYIQLHFSGAKHNPNYIAVLEDNPYVPENEDLIAKQKKLAEAFLERSVQSFEEKELLRRIDEALDARDKETFLTLSQQLQHLRQHSDEGHHHHHH | soluble |
| MSLDGPVVFICGKCKLPVGDSLSWDGSEDEQNQIRLKRVTDNVYVGKENRMYEVGKRSLCLIVDLLCQGCHSVLGMVYASTPKNMDHKRFTFCLNVADIDSYVLGSASQSLAAGGAGEQPVTLEYRSQVEEQLSQMKMLVMSMALKLEEIEIGRREGYEREGHHHHHH | not soluble |
| MSLDIILDQPEQMLFALLRSALNSTKPVSEILFTDISPALWQACYRLACTQGVMALAWDGIQTLPACLQPPKALKLNWAMAVENYEKRYLRYCHTIAELSAFYKTHGITTVQLKGVGLSTYYPIPSHREGGDIDIFTYSADHSRKSDAEANRLADRLMEEKGIEVDFEHSEKHSMFYYKGIPIENHKTFINSETYRIAVKMDKLLQKLLQPVSAELDGKCSILIPSSTFNTVFLAFHAAQHYARGLALHHLCDWACLLNRYDLHIPEEVTDIRFRNMILAMTRLCNDYLGTSVPVYGGEELAEEILREIIRPPYTMSVPAKNKWGILVYKTKRMLHTHRACNSVLRISLCKWVGNSILLHLRSPHTIFQTEREGHHHHHH | soluble |
| MSLDIRGIGYLGFESPNIEAWRSYGPEVLGLAIAPSPEDEPDALYLKMDDRRYRLAFQPGPIDKLAYIGWECVNRIAFEKAVKKLQDAGIAVEMGSDDLKARRAVRDVVRFKDPVGYQYELFYGQKGEPDSFVPGRRHGGFNTYGRGFGHVVVMTPEYGPELDDFLINIMGFQWYGSGAGKGKTGFYRAGLNNLTSHDIGYGHAPGRMGIQHIGLLTGDLRDVGETWDIVNKRQIQVQMTLGQHTQDPHFSFYHFSPSGFAVEVIAETHPWPGDPFELNAERLSYWGHQLVGPILGTEGHHHHHH | not soluble |
| MSLDIVLVGCKGFGKEHLRIYSKLGYDVSIVERDSNEAKRCSELFRVYKVYDNYEDALRSGSNIVDLVVPDGLHYEMGSLALKSKKHLLVEKPITPDIDSGISLIQQAEESKLKLMVAEQFYFDPSVNEAIRRINNGEIGKPHTVIVRHQSFRELKGWRNEKSMMGRGILIDEGTHYIDTLLNFGGRYRSLRSFVHRTWDFLGEDTAEAVFNFENGMHGLFFYSWNYPEYPLLPEFEIIGDAGSIYEDIGTKPTEPWDQRKRKTAYGDIIVNGKHIPVEPYDVIEREISGFLNAVEKDEPVPMPPDLALRDIITIDRIYKASSDEGHHHHHH | soluble |
| MSLDLASKYFNDIDWRYVDHSSGLAPMQSFAFDDTFSESVGKDLSCNVVRTWIHQHTVILGIHDSRLPFLKDGIKYLTDEIGYNAIVRNSGGLGVVLDQGVLNISLIFKGQTETTIDEAFTVMYLLICKMFENEDVEIDTREIEHSYCPGKFDLSIDGKKFAGISQRRVRGGIAVQIYLCVEGSGSERAEMMRVFYEHALKGEVTKFKYPDIHPECMASLETLFEREIKVQDVMFQLLHAIKDLGGNLNMDPITEDEWTRYEGYFDKMIDRNEKMNRSIEADEGHHHHHH | soluble |
| MSLDNHNPKKSTTPNNEFHKKIATTGKIINLPKQSIVPAVSISVYNDMKTIVLTPMEFQLSSIGFQFQNLIIDLPHSTISTNCITFYYHQDHILIDLIDQNYLFITLKIAIDRFILGGQQLTLDNFEEWGYISVPYSFELRSSPFLLKCLDNLNLIVSLKDGGLLHFKRDEELGEINVFNFQEQGTLIPFLGFFGSGKQKDVVLDGVSSNSIVDALQIGGSGVVITLSVNKVLKLWNLDGHQNLSSLTIASDDNTWLPTIPSKYLKSYDQEDGKTIITLFINTKSGDSSKSMFVFKSFELESSNEGHHHHHH | not soluble |
| MSLDRFVVTYRIVAEDEADAAARAASIALEDTVEIPRDVVPAGYVEDVVLGRVESVTARGGGVWTALIGYHVDAVGRELPQLLNVILGNASILRGVKAVDLAPDAALAERFPGARFGAAGVRRLTGRASGGFVCPVIKPQGSSAETLARLCYLSAVAGADIVKEDHGLANQDAAPFRERIGACAEAVGRANAERRDQGDTTQALYFANLCGPPHQLRDQAYYAKESGAHGILLIPGLHGFDAMFELAQDPDFDLPIMAHPSHLGPYVLSPDHGYGHGMLFGQLMRLAGADISVFPNHGGRFGFSVDECEEIVRACRDPEGLGPAILPSPGGGMSPERLPDMMAQYGEDCVYLLGGSLLRAGDRIGELIAEMRAALSGRDEGHHHHHH | soluble |
| MSLDSHRISVLHVDDEPGLGETTAEFLRQQSDGFSVETATSTSEGLKRLTEAPFDCIVSDYDMADMDGIEFLRAVRAEYPDLPFVLFTGKGSEEVASEAVSAGVSDYLQKRGGTERYTLLANRITNLVTQHRAEERLRTRVQQQEAVADLGQYALTGCGLDALFERAVESVAAGLNTEYSKVLEYRPADNKFLLRAGVGWQSGLVGEAAVGAGEESQAGYTLQTEEPVVVEDLRTESRFSGPSLLLDHGVVSGISVIIGTTTEPWGVLGAHTSERRPFTKDDITFVRGVANTLTNAIEREQLEGTLRQAEQRYKTLLENFPGGGVFLFDDDLRYLIARGEGLSAFGLTPADVEGKTLAEVFPPAVVERQKPKYRAALDGETQVWTQEYEGKQYRLSTLPVTGSSDKQLGMVVSMDITGLSASEGHHHHHH | soluble |
| MSLDSIELMAKIHASARWSEAALQILADETRRILKHEAGTRAGEDPEQLHQMRVGIRRLRSALRLFEPALKLPKPARRRSLSPLAAVLGSVRDLDVQMEMLRERYLGALPEGEQQALERLLAHLESLRTQARSAMLRYLDGLDYEQFKSAYTEFLESPKFRRGADESLYHLLPAFLREALSTLWAHPGWEEPDVETMHDLRIAVKRVRYNLEFFLGCYGKAVRSLHGELKRIQEELGIIHDCDVLLGQLHTEPLGPATPWQQPFSRLTALVRNERRNAVRRFRRLKTRLLSEDMRNSLAVWVSWPGTADDEGHHHHHH | not soluble |
| MSLDSISLHKIFYKVLKNNTLPECQVIAAEGLCKLYLADIFNDDDLFETLILSYFSPSNSSNEGLIQAFAFCIPVYSYSHVLHQQRITKIASDVLLRLYMLWVDFQANEETDENIETMLKPNVILQQLISWTDPRKLIGENEKAINDNYQLNFLLDIFQQFPKFDKKNIKKMILTNINAFYVSSDNDMHKLREIKEHLEDIIENEIIDTMTLNSLEKFKNTIIDCLEEAKEKSENQTKDEIESSDGEYSMILESSNIGNISDVEKDVNVEAAQFSDSENDFEDSDDDTSRKRNRSKLEESIANNTSEKLSVNEDYDSEDTNEPKNDAKDINEPEDGTKDVIMEDSVSSNVIENSKNVSFILPDNDYSSSESSMSVDDESYKEEGHHHHHH | soluble |
| MSLDSPFGPEDDICILHFNDVYNIEEDVNGTGGVARFVEALKSFRSLNPLLLFSGDVFNPSIMSVTTKGRHMVPFLNMMRVHTACFGNHDFDFGVDHLEYLAGSCNFQWILSNVYDAYTGEPLANARTYRLFEWQGRRIGIMGLVEKDWLKTLPTISEEDVIYKDFVEEANRISKILREKDAELIIALTHMRAPNDELLAKGADDIDLILGGHDHEYYGVKEIGNSVVAKSGTDFRDLTMIVIKPGKHCLVCPNSDSKLHLESCRYSSFSLDQPQNIYEERLIPNNKDGGDIYLREGHHHHHH | soluble |
| MSLDSPPIRVFVVEDQTKILKNQLRLFENHPEMDIIGTALSGEAALEEVPKLMPDVLLLDLGLPRMSGIDVTREVKARFPKIEILIFTIFDEEDKVLEAVKAGASGYLLKGAPVDKIIEAIKEVRAGGTVIQPNLARRLLRHFRVEPDASPLISPPAAPEPSASDLPQEPLLKPLSDREREILQLIAKGVSNSEAARLLDLSKATIRTHLEHIYRKLEVTNRVEAVTEGIRKGLISEGHHHHHH | soluble |
| MSLDSRLPAFRNLSPAARLDHIGQLLGLSHDDVSLLANAGALPMDIANGMIENVIGTFELPYAVASNFQINGRDVLVPLVVEEPSIVAAASYMAKLARANGGFTTSSSAPLMHAQVQIVGIQDPLNARLSLLRRKDEIIELANRKDQLLNSLGGGCRDIEVHTFADTPRGPMLVAHLIVDVRDAMGANTVNTMAEAVAPLMEAITGGQVRLRILSNLADLRLARAQVRITPQQLETAEFSGEAVIEGILDAYAFAAVDPYRAATHNKGIMNGIDPLIVATGNDWRAVEAGAHAYACRSGHYGSLTTWEKDNNGHLVGTLEMPMPVGLVGGATKTHPLAQLSLRILGVKTAQALAEIAVAVGLAQNLGAMRALATEGIQRGHMALHARNIAVVAGARGDEVDWVARQLVEYHDVRADRAVALLKQKRGQ | soluble |
| MSLDTGVTSVMFVERSLNEIRFWSRIMKEHSFFLRLGFRCEDTQLIEEANQFYRLFEHIEQIAHSYTNETDPEQIKRFNAEVQQAATNIWGFKRKILGLILTCKLPGQNNFPLLVDHTSREADYFRKRLIQLNEGKLDALPDAIIKENVFFLRIMADHAKFIGHLLDPSERKLVDTARNFSNDFDELMYQAIDLESMKPQSQTAPLLDQFLDQNRVSVASLRDFKKTARDLIEQCKIKSIIHPLLADHVFREADRFLEIIDMYDVHLTNIQSQPREGHHHHHH | soluble |
